Data published in IntAct's records for PubMed 19737519.

Experiments:
nle1_yeast RSA4 [1] = molecular target: nle1_yeast RSA4 (UniProt P25382)
nle1_yeast RSA4 [2] = molecular target: nle1_yeast RSA4 (UniProt P25382); remark: listed apart in the source

Sequence of UniProt P25382 (P25382 whole entry): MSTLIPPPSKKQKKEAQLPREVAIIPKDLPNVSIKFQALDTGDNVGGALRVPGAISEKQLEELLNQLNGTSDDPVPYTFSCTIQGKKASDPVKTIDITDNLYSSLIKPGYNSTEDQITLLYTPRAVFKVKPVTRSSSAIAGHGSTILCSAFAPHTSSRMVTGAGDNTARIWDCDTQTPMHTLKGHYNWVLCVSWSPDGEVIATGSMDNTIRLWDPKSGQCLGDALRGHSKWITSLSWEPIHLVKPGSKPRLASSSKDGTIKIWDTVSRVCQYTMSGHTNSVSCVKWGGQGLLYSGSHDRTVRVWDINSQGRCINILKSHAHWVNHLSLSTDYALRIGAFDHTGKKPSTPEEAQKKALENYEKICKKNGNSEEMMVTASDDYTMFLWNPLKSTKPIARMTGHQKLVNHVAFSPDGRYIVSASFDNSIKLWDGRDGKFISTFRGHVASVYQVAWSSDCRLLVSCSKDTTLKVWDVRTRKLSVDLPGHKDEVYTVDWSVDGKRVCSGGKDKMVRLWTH

effect of a mutation on the interaction (nle1_yeast RSA4 [1])	effect of a mutation on the interaction (nle1_yeast RSA4 [2])	Substance
disrupting interaction	decreasing interaction	Midasin (Saccharomyces cerevisiae), Q12019 S4712A;S4714A
decreasing interaction	–	Midasin (Saccharomyces cerevisiae), Q12019 S4712T
